What was measured:
Srs2ΔC (Srs2 1-898) [1] = target: T1, Srs2ΔC (Srs2 1-898) (Saccharomyces cerevisiae? (budding …, UniProt P12954 1-898)); assay: competition; FITC-3' overhang competitor releasing 50% of Cy5-ssDNA (N1) from 150 nM Srs2ΔC; 30 mM Tris pH 7.5, 1 mM DTT, 0.1 mg/ml BSA, 100 mM KCl, 3 nM DNA, 30 °C 10 min; 7% native PAGE in 0.5x TBE; settings: protein: recombinant; tags: His9 (pull-down section says His6); label: fluorescein (FITC), end label
Srs2ΔC (Srs2 1-898) [2] = target: T1, Srs2ΔC (Srs2 1-898); assay: competition; FITC-ssDNA competitor against Cy5-ssDNA with 150 nM Srs2ΔC; value derived from text: 3 times higher than the 5 nM of 3' overhang; 30 mM Tris pH 7.5, 1 mM DTT, 0.1 mg/ml BSA, 100 mM KCl, 3 nM DNA, 30 °C 10 min; 7% native PAGE in 0.5x TBE; settings: protein: recombinant; tags: His9 (pull-down section says His6); label: fluorescein or Cy5, end label; single strand
Srs2ΔC (Srs2 1-898) [3] = target: T1, Srs2ΔC (Srs2 1-898); assay: EMSA; much higher affinity than other substrates; 3 nM DNA; 30 mM Tris pH 7.5, 1 mM DTT, 0.1 mg/ml BSA, 100 mM KCl, 3 nM DNA, 30 °C 10 min; 7% native PAGE in 0.5x TBE; settings: protein: recombinant, tags: His9 (pull-down section says His6), label: fluorescent dye (fluorescein or Cy5), end label

T1 sequence (P12954 1-898, stated change not applied): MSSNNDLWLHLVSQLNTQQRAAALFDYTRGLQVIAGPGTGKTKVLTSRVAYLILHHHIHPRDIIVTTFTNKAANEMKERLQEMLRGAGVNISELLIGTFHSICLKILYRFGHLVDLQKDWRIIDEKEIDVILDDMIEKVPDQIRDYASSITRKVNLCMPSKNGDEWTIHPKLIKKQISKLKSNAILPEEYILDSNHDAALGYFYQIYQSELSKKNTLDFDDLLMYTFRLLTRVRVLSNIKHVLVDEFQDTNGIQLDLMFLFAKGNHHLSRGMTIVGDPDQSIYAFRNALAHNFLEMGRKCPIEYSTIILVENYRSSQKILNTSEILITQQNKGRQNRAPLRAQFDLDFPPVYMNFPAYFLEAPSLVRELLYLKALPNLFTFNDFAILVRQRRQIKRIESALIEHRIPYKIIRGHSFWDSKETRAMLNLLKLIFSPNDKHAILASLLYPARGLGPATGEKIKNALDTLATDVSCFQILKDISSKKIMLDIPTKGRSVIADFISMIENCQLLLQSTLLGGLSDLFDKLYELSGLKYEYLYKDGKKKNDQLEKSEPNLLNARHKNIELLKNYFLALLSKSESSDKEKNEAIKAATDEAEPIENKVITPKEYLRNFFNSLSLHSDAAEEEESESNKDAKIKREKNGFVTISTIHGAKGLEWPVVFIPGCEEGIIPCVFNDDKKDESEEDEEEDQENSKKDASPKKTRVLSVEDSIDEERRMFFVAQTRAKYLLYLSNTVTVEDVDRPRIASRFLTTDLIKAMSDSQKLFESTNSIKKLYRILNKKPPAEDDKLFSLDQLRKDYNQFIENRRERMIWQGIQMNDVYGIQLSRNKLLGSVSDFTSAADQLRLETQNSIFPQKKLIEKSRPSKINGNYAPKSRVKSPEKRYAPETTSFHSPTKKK

B1: 3' overhang (mixed)
DNA 1: AGCTACCATGCCTGCACGAATTAAGCAATTCGTAATCATGGTCATAGCT
DNA 2: AATTCGTGCAGGCATGGTAGCT
- IC50 (Srs2ΔC (Srs2 1-898) [1]): ~5 nM

Binder: AGCTACCATGCCTGCACGAATTAAGCAATTCGTAATCATGGTCATAGCT (ssDNA) [ssDNA]
- IC50 (Srs2ΔC (Srs2 1-898) [2]): ~15 nM

B2: 5' overhang (mixed)
DNA 1: AGCTACCATGCCTGCACGAATTAAGCAATTCGTAATCATGGTCATAGCT
DNA 2: AGCTATGACCATGATTACGAATTGCTT
- binding result (Srs2ΔC (Srs2 1-898) [3]): binds

B3: 5' flap (fork with leading strand) (structured_DNA)
DNA 1: AGCTACCATGCCTGCACGAATTAAGCAATTCGTAATCATGGTCATAGCT
DNA 2: AGCTATGACCATGATTACGAATTGCTT
DNA 3: GATGTCAAGCAGTCCTAAGGAATTCGTGCAGGCATGGTAGCT
- binding result (Srs2ΔC (Srs2 1-898) [3]; 5' flap): binds

From paper PMC3484393, “Unwinding of synthetic replication and recombination substrates by Srs2”
